Assay results reported in article PMC4216055 (Carcinogenesis, 2014).
Changes are numbered by the printed parent chain.

B1: Human recombinant granulin-epithelin precursor (rGEP) (natural protein, UniProt P28799 14-593, looked up)
chain: LVAGTRCPDGQFCPVACCLDPGGASYSCCRPLLDKWPTTLSRHLGGPCQVDAHCSAGHSCIFTVSGTSSCCPFPEAVACGDGHHCCPRGFHCSADGRSCFQRSGNNSVGAIQCPDSQFECPDFSTCCVMVDGSWGCCPMPQASCCEDRVHCCPHGAFCDLVHTRCITPTGTHPLAKKLPAQRTNRAVALSSSVMCPDARSRCPDGSTCCELPSGKYGCCPMPNATCCSDHLHCCPQDTVCDLIQSKCLSKENATTDLLTKLPAHTVGDVKCDMEVSCPDGYTCCRLQSGAWGCCPFTQAVCCEDHIHCCPAGFTCDTQKGTCEQGPHQVPWMEKAPAHLSLPDPQALKRDVPCDNVSSCPSSDTCCQLTSGEWGCCPIPEAVCCSDHQHCCPQGYTCVAEGQCQRGSEIVAGLEKMPARRASLSHPRDIGCDQHTSCPVGQTCCPSLGGSWACCQLPHAVCCEDRQHCCPAGYTCNVKARSCEKEVVSAQPATFLARSPHVGVKDVECGEGHFCHDNQTCCRDNRQGWACCPYRQGVCCADRRHCCPAGFRCAARGTKCLRREAPRWDAPLRDPALRQLL
modifications: N-glycan (removed by PNGase F only for the gel analysis)
B2: rGEP-3A (rGEP with alanine mutations at RRH(555-557)) (natural protein, human, UniProt P28799 14-593, looked up)
chain: B1 chain with R542A, R543A, H544A

Molecular target: the molecule itself
Experiment: cross-linking

Protein	binding result
B1	binds
B2	binds
